*1 amine or outer side, *2 acyl side, *3 side chain or, on linkers, in order; H or OH if unused. Primed or numbered codes have the meaning given here. Where no end group is shown, it is not given here. Side-chain parts run from the residue outwards. [ ]: non-standard residue; d: D form. The star is where a group is joined. Thp′ = 4-amino-tetrahydro-2H-pyran-4-yl-acetic acid, O=C(CC1(N[*:1])CCOCC1)[*:2]; C18 diacid = O=C(O)CCCCCCCCCCCCCCCCC(=O)*; C16 diacid = O=C(O)CCCCCCCCCCCCCCC(=O)*; γGlu = O=C(O)[C@H](CCC(=O)[*:2])N[*:1]; Thp″ = not defined here
T1: CRF1R receptor (UniProt P34998 24-415, limits assumed)
T1 sequence (looked up): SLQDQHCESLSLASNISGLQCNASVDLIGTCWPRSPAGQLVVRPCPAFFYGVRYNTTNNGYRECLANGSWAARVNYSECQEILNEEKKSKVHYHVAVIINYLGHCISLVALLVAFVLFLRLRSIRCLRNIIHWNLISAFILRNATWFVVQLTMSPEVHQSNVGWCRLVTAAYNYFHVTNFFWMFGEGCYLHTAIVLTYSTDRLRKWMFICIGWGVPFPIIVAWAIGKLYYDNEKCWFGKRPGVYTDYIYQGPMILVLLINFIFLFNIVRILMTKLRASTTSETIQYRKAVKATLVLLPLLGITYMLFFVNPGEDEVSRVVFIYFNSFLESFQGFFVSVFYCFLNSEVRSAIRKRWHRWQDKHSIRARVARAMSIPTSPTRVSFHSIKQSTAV

B1: SEQ ID NO 147 (peptide)
peptide: IVLSLD[dV]PIKLK([γGlu-γGlu-C16 diacid])QILLKQERQKKQREQAEKNKQILEQV-NH2
modifications: N-terminus assumed
SMILES: CC[C@H](C)[C@H](N)C(=O)N[C@H](C(=O)N[C@@H](CC(C)C)C(=O)N[C@@H](CO)C(=O)N[C@@H](CC(C)C)C(=O)N[C@@H](CC(=O)O)C(=O)N[C@@H](C(=O)N1CCC[C@H]1C(=O)N[C@H](C(=O)N[C@@H](CCCCN)C(=O)N[C@@H](CC(C)C)C(=O)N[C@@H](CCCCNC(=O)CC[C@H](NC(=O)CC[C@H](NC(=O)CCCCCCCCCCCCCCC(=O)O)C(=O)O)C(=O)O)C(=O)N[C@@H](CCC(N)=O)C(=O)N[C@H](C(=O)N[C@@H](CC(C)C)C(=O)N[C@@H](CC(C)C)C(=O)N[C@@H](CCCCN)C(=O)N[C@@H](CCC(N)=O)C(=O)N[C@@H](CCC(=O)O)C(=O)N[C@@H](CCCNC(=N)N)C(=O)N[C@@H](CCC(N)=O)C(=O)N[C@@H](CCCCN)C(=O)N[C@@H](CCCCN)C(=O)N[C@@H](CCC(N)=O)C(=O)N[C@@H](CCCNC(=N)N)C(=O)N[C@@H](CCC(=O)O)C(=O)N[C@@H](CCC(N)=O)C(=O)N[C@@H](C)C(=O)N[C@@H](CCC(=O)O)C(=O)N[C@@H](CCCCN)C(=O)N[C@@H](CC(N)=O)C(=O)N[C@@H](CCCCN)C(=O)N[C@@H](CCC(N)=O)C(=O)N[C@H](C(=O)N[C@@H](CC(C)C)C(=O)N[C@@H](CCC(=O)O)C(=O)N[C@@H](CCC(N)=O)C(=O)N[C@H](C(N)=O)C(C)C)[C@@H](C)CC)[C@@H](C)CC)[C@@H](C)CC)C(C)C)C(C)C
B2: SEQ ID NO 14 (peptide)
peptide: IVLSLD[dV]PIKLK([γGlu-C16 diacid])QILLKQERQKKQREQAEKNTQILEQV-NH2
modifications: N-terminus assumed
SMILES: CC[C@H](C)[C@H](N)C(=O)N[C@H](C(=O)N[C@@H](CC(C)C)C(=O)N[C@@H](CO)C(=O)N[C@@H](CC(C)C)C(=O)N[C@@H](CC(=O)O)C(=O)N[C@@H](C(=O)N1CCC[C@H]1C(=O)N[C@H](C(=O)N[C@@H](CCCCN)C(=O)N[C@@H](CC(C)C)C(=O)N[C@@H](CCCCNC(=O)CC[C@H](NC(=O)CCCCCCCCCCCCCCC(=O)O)C(=O)O)C(=O)N[C@@H](CCC(N)=O)C(=O)N[C@H](C(=O)N[C@@H](CC(C)C)C(=O)N[C@@H](CC(C)C)C(=O)N[C@@H](CCCCN)C(=O)N[C@@H](CCC(N)=O)C(=O)N[C@@H](CCC(=O)O)C(=O)N[C@@H](CCCNC(=N)N)C(=O)N[C@@H](CCC(N)=O)C(=O)N[C@@H](CCCCN)C(=O)N[C@@H](CCCCN)C(=O)N[C@@H](CCC(N)=O)C(=O)N[C@@H](CCCNC(=N)N)C(=O)N[C@@H](CCC(=O)O)C(=O)N[C@@H](CCC(N)=O)C(=O)N[C@@H](C)C(=O)N[C@@H](CCC(=O)O)C(=O)N[C@@H](CCCCN)C(=O)N[C@@H](CC(N)=O)C(=O)N[C@H](C(=O)N[C@@H](CCC(N)=O)C(=O)N[C@H](C(=O)N[C@@H](CC(C)C)C(=O)N[C@@H](CCC(=O)O)C(=O)N[C@@H](CCC(N)=O)C(=O)N[C@H](C(N)=O)C(C)C)[C@@H](C)CC)[C@@H](C)O)[C@@H](C)CC)[C@@H](C)CC)C(C)C)C(C)C
B3: SEQ ID NO 34 (peptide)
peptide: VLSLD[dV]PIKLK([γGlu-C16 diacid])KILLEQEKQKKQREQAETNKQILAQV-NH2
modifications: N-terminus assumed
SMILES: CC[C@H](C)[C@H](NC(=O)[C@H](CCC(N)=O)NC(=O)[C@H](CCCCN)NC(=O)[C@H](CC(N)=O)NC(=O)[C@@H](NC(=O)[C@H](CCC(=O)O)NC(=O)[C@H](C)NC(=O)[C@H](CCC(N)=O)NC(=O)[C@H](CCC(=O)O)NC(=O)[C@H](CCCNC(=N)N)NC(=O)[C@H](CCC(N)=O)NC(=O)[C@H](CCCCN)NC(=O)[C@H](CCCCN)NC(=O)[C@H](CCC(N)=O)NC(=O)[C@H](CCCCN)NC(=O)[C@H](CCC(=O)O)NC(=O)[C@H](CCC(N)=O)NC(=O)[C@H](CCC(=O)O)NC(=O)[C@H](CC(C)C)NC(=O)[C@H](CC(C)C)NC(=O)[C@@H](NC(=O)[C@H](CCCCN)NC(=O)[C@H](CCCCNC(=O)CC[C@H](NC(=O)CCCCCCCCCCCCCCC(=O)O)C(=O)O)NC(=O)[C@H](CC(C)C)NC(=O)[C@H](CCCCN)NC(=O)[C@@H](NC(=O)[C@@H]1CCCN1C(=O)[C@H](NC(=O)[C@H](CC(=O)O)NC(=O)[C@H](CC(C)C)NC(=O)[C@H](CO)NC(=O)[C@H](CC(C)C)NC(=O)[C@@H](N)C(C)C)C(C)C)[C@@H](C)CC)[C@@H](C)CC)[C@@H](C)O)C(=O)N[C@@H](CC(C)C)C(=O)N[C@@H](C)C(=O)N[C@@H](CCC(N)=O)C(=O)N[C@H](C(N)=O)C(C)C
B4: SEQ ID NO 151 (peptide)
peptide: IVLSLD[dV]PIKLK([γGlu-C16 diacid])QILLKQERQKKQREQAEKNKQILEQV-NH2
modifications: N-terminus assumed
SMILES: CC[C@H](C)[C@H](N)C(=O)N[C@H](C(=O)N[C@@H](CC(C)C)C(=O)N[C@@H](CO)C(=O)N[C@@H](CC(C)C)C(=O)N[C@@H](CC(=O)O)C(=O)N[C@@H](C(=O)N1CCC[C@H]1C(=O)N[C@H](C(=O)N[C@@H](CCCCN)C(=O)N[C@@H](CC(C)C)C(=O)N[C@@H](CCCCNC(=O)CC[C@H](NC(=O)CCCCCCCCCCCCCCC(=O)O)C(=O)O)C(=O)N[C@@H](CCC(N)=O)C(=O)N[C@H](C(=O)N[C@@H](CC(C)C)C(=O)N[C@@H](CC(C)C)C(=O)N[C@@H](CCCCN)C(=O)N[C@@H](CCC(N)=O)C(=O)N[C@@H](CCC(=O)O)C(=O)N[C@@H](CCCNC(=N)N)C(=O)N[C@@H](CCC(N)=O)C(=O)N[C@@H](CCCCN)C(=O)N[C@@H](CCCCN)C(=O)N[C@@H](CCC(N)=O)C(=O)N[C@@H](CCCNC(=N)N)C(=O)N[C@@H](CCC(=O)O)C(=O)N[C@@H](CCC(N)=O)C(=O)N[C@@H](C)C(=O)N[C@@H](CCC(=O)O)C(=O)N[C@@H](CCCCN)C(=O)N[C@@H](CC(N)=O)C(=O)N[C@@H](CCCCN)C(=O)N[C@@H](CCC(N)=O)C(=O)N[C@H](C(=O)N[C@@H](CC(C)C)C(=O)N[C@@H](CCC(=O)O)C(=O)N[C@@H](CCC(N)=O)C(=O)N[C@H](C(N)=O)C(C)C)[C@@H](C)CC)[C@@H](C)CC)[C@@H](C)CC)C(C)C)C(C)C
B5: SEQ ID NO 13 (peptide)
peptide: IVLSLD[dV]PIKLK([γGlu-C16 diacid])QILLKQERQKKQREQAEKNVQILEQV-NH2
modifications: N-terminus assumed
SMILES: CC[C@H](C)[C@H](N)C(=O)N[C@H](C(=O)N[C@@H](CC(C)C)C(=O)N[C@@H](CO)C(=O)N[C@@H](CC(C)C)C(=O)N[C@@H](CC(=O)O)C(=O)N[C@@H](C(=O)N1CCC[C@H]1C(=O)N[C@H](C(=O)N[C@@H](CCCCN)C(=O)N[C@@H](CC(C)C)C(=O)N[C@@H](CCCCNC(=O)CC[C@H](NC(=O)CCCCCCCCCCCCCCC(=O)O)C(=O)O)C(=O)N[C@@H](CCC(N)=O)C(=O)N[C@H](C(=O)N[C@@H](CC(C)C)C(=O)N[C@@H](CC(C)C)C(=O)N[C@@H](CCCCN)C(=O)N[C@@H](CCC(N)=O)C(=O)N[C@@H](CCC(=O)O)C(=O)N[C@@H](CCCNC(=N)N)C(=O)N[C@@H](CCC(N)=O)C(=O)N[C@@H](CCCCN)C(=O)N[C@@H](CCCCN)C(=O)N[C@@H](CCC(N)=O)C(=O)N[C@@H](CCCNC(=N)N)C(=O)N[C@@H](CCC(=O)O)C(=O)N[C@@H](CCC(N)=O)C(=O)N[C@@H](C)C(=O)N[C@@H](CCC(=O)O)C(=O)N[C@@H](CCCCN)C(=O)N[C@@H](CC(N)=O)C(=O)N[C@H](C(=O)N[C@@H](CCC(N)=O)C(=O)N[C@H](C(=O)N[C@@H](CC(C)C)C(=O)N[C@@H](CCC(=O)O)C(=O)N[C@@H](CCC(N)=O)C(=O)N[C@H](C(N)=O)C(C)C)[C@@H](C)CC)C(C)C)[C@@H](C)CC)[C@@H](C)CC)C(C)C)C(C)C
B6: SEQ ID NO 199 (peptide)
peptide: Ac-IVLSLD[dV]PIKLK([γGlu-C18 diacid])KILLEQEKQKKQREQAETN[Thp′]QILAQV-NH2
SMILES: CC[C@H](C)[C@H](NC(C)=O)C(=O)N[C@H](C(=O)N[C@@H](CC(C)C)C(=O)N[C@@H](CO)C(=O)N[C@@H](CC(C)C)C(=O)N[C@@H](CC(=O)O)C(=O)N[C@@H](C(=O)N1CCC[C@H]1C(=O)N[C@H](C(=O)N[C@@H](CCCCN)C(=O)N[C@@H](CC(C)C)C(=O)N[C@@H](CCCCNC(=O)CC[C@H](NC(=O)CCCCCCCCCCCCCCCCC(=O)O)C(=O)O)C(=O)N[C@@H](CCCCN)C(=O)N[C@H](C(=O)N[C@@H](CC(C)C)C(=O)N[C@@H](CC(C)C)C(=O)N[C@@H](CCC(=O)O)C(=O)N[C@@H](CCC(N)=O)C(=O)N[C@@H](CCC(=O)O)C(=O)N[C@@H](CCCCN)C(=O)N[C@@H](CCC(N)=O)C(=O)N[C@@H](CCCCN)C(=O)N[C@@H](CCCCN)C(=O)N[C@@H](CCC(N)=O)C(=O)N[C@@H](CCCNC(=N)N)C(=O)N[C@@H](CCC(=O)O)C(=O)N[C@@H](CCC(N)=O)C(=O)N[C@@H](C)C(=O)N[C@@H](CCC(=O)O)C(=O)N[C@H](C(=O)N[C@@H](CC(N)=O)C(=O)NC1(CC(=O)N[C@@H](CCC(N)=O)C(=O)N[C@H](C(=O)N[C@@H](CC(C)C)C(=O)N[C@@H](C)C(=O)N[C@@H](CCC(N)=O)C(=O)N[C@H](C(N)=O)C(C)C)[C@@H](C)CC)CCOCC1)[C@@H](C)O)[C@@H](C)CC)[C@@H](C)CC)C(C)C)C(C)C

Key:
CRF1R receptor = target: T1, CRF1R receptor; experiment: cell-based or functional assay
[1] = target: human corticotropin-releasing factor 2a (CRF2a receptor) (human), Q13324; experiment: cell-based or functional assay
Sequence of human corticotropin-releasing factor 2a (CRF2a receptor) (human), Q13324 (Q13324 20-411): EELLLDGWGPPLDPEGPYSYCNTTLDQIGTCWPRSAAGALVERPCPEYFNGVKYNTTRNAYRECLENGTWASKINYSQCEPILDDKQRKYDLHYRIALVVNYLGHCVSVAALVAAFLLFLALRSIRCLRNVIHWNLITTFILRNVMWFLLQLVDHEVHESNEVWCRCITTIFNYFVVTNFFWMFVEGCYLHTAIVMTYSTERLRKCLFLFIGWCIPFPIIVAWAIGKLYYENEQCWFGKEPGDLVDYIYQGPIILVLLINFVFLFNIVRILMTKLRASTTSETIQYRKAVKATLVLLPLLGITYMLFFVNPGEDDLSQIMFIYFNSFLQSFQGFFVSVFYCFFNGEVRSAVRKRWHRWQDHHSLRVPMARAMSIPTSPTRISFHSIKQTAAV

Binder	EC50 (CRF1R receptor) [nM]	Emax (% I) (CRF1R receptor) [%]	EC50 [nM] (cAMP) [1]
B1	100	22	–
B2	> 250	24	–
Ac-IVLSLD[dV]PIKLK([γGlu-C18 diacid])KILLEQEKQKKQREQAETN[Thp″]QILAQV-NH2 (not fully specified; reading uncertain)	–	–	0.16
B3	–	0	–
B4	25.3	53	–
B5	> 250	24	–
B6	–	11	–
